Reference: US20030099631A1

T1: DNP-Pro-Cha-Abu-Cys(Me)-His-Ala-Lys(N-Me-Abz)-NH2
T1 sequence: PXXCHAK


Key:
[1] = test system: T1, DNP-Pro-Cha-Abu-Cys(Me)-His-Ala-Lys(N-Me-Abz)-NH2

Molecule | intensity of fluorescence (excitation 365 nm, emission 460 nm) after cleavage of the substrate [1] | casein hydrolyzing activity (PER assay) (casein)
recombinant human liver-derived metalloprotease expressed in Escherichia coli JM109/pNHMB | a fluorescence intensity of 230 | –
human liver-derived metalloprotease transiently expressed in COS-7 cells transfected with pTB1921 (culture supernatant, treated with aminophenyl-mercuric … (protein) YLLLGRWRKKHLTFRILNLPSTLPPHTARAALRQAFQDWSNVAPLTFQEVQAGAADIRLSFHGRQSSYCSNTFDGPGRVLAHADIPELGSVHFDEDEFWTEGTYRGVNLRIIAAHEVGHALGLGHSRYSQALMAPVYEGYRPHFKLHPDDVAGIQALYGKKSPVIRDEEEEETELPTVPPVPTEPSPMPDPCSSELDAMMLGPRGKTYAFKGDYVWTVSDSGPGPLFRVSALWEGLPGNLDAAVYSPRTQWIHFFKGDKVWRYINFKMSPGFPKKLNRVEPNLDAALYWPLNQKVFLFKGSGYWQWDELARTDFSSYPKPIKGLFTGVPNQPSAAMSWQDGRVYFFKGKVYWRLNQQLRVEKGYPRNISHNWMHCRPRTIDTTPSGGNTTPSGTGITLDTTLSATETTFEY | – | casein hydrolyzing activity which was not found in the mock culture supernatant was detected in the culture supernatant of COS-7 cells transfected with pTB1921
